According to IntAct's records for PubMed 28698298:

B1: Eukaryotic translation initiation factor 4E type 2 (Homo sapiens), O60573-1 (parent)
chain: MNNKFDALKDDDSGDHDQNEENSTQKDGEKEKTERDKNQSSSKRKAVVPGPAEHPLQYNYTFWYSRRTPGRPTSSQSYEQNIKQIGTFASVEQFWRFYSHMVRPGDLTGHSDFHLFKEGIKPMWEDDANKNGGKWIIRLRKGLASRCWENLILAMLGEQFMVGEEICGAVVSVRFQEDIISIWNKTASDQATTARIRDTLRRVLNLPPNTIMEYKTHTDSIKMPGRLGPQRLLFQNLWKPRLNVP
B2: Eukaryotic translation initiation factor 4E type 2 (Homo sapiens), O60573-1 (parent)
chain: B1 chain
partner: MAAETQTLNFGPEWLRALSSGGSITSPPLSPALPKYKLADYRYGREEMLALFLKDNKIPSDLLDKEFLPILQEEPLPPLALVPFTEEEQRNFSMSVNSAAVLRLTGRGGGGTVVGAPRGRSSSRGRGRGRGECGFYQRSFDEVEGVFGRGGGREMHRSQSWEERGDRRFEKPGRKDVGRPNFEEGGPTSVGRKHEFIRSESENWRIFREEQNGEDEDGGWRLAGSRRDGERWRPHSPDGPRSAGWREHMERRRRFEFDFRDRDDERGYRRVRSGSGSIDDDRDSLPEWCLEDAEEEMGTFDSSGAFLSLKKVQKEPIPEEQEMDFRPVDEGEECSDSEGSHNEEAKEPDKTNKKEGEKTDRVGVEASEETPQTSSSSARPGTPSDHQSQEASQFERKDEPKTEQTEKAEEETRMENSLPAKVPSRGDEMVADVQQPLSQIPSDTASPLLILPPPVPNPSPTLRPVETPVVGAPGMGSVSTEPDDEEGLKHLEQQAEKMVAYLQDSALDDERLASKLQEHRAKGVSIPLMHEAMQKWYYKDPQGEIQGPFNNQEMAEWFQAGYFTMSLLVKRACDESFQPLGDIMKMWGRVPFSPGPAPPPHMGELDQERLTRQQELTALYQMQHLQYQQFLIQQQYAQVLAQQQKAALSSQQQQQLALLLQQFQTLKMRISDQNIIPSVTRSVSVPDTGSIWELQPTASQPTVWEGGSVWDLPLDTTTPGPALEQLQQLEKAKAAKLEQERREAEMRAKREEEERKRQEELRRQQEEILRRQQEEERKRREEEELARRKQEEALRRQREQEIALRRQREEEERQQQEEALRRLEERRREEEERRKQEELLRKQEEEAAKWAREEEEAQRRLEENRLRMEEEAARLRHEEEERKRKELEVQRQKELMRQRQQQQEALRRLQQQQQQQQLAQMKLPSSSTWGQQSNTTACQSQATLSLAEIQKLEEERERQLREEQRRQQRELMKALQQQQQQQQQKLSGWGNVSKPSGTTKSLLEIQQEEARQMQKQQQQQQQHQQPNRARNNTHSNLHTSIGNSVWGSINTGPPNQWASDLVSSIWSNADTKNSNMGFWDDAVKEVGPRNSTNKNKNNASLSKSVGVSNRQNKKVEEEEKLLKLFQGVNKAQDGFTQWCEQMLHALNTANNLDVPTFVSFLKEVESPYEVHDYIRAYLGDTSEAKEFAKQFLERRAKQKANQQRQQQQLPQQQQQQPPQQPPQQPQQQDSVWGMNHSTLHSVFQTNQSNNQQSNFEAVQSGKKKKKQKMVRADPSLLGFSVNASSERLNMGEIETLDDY
B3: GRB10-interacting GYF protein 1 (Homo sapiens), O75420 (parent)
chain: MAAETLNFGPEWLRALSGGGSVASPPPSPAMPKYKLADYRYGREEMLALYVKENKVPEELQDKEFAAVLQDEPLQPLALEPLTEEEQRNFSLSVNSVAVLRLMGKGAGPPLAGTSRGRGSTRSRGRGRGDSCFYQRSIEEGDGAFGRSPREIQRSQSWDDRGERRFEKSARRDGARCGFEEGGAGPRKEHARSDSENWRSLREEQEEEEEGSWRLGAGPRRDGDRWRSASPDGGPRSAGWREHGERRRKFEFDLRGDRGGCGEEEGRGGGGSSHLRRCRAPEGFEEDKDGLPEWCLDDEDEEMGTFDASGAFLPLKKGPKEPIPEEQELDFQGLEEEEEPSEGLEEEGPEAGGKELTPLPPQEEKSSSPSPLPTLGPLWGTNGDGDETAEKEPPAAEDDIRGIQLSPGVGSSAGPPGDLEDDEGLKHLQQEAEKLVASLQDSSLEEEQFTAAMQTQGLRHSAAATALPLSHGAARKWFYKDPQGEIQGPFTTQEMAEWFQAGYFSMSLLVKRGCDEGFQPLGEVIKMWGRVPFAPGPSPPPLLGNMDQERLKKQQELAAAALYQQLQHQQFLQLVSSRQLPQCALREKAALGDLTPPPPPPPQQQQQQLTAFLQQLQALKPPRGGDQNLLPTMSRSLSVPDSGRLWDVHTSASSQSGGEASLWDIPINSSTQGPILEQLQLQHKFQERREVELRAKREEEERKRREEKRRQQQQEEQKRRQEEEELFRRKHVRQQELLLKLLQQQQAVPVPPAPSSPPPLWAGLAKQGLSMKTLLELQLEGERQLHKQPPPREPARAQAPNHRVQLGGLGTAPLNQWVSEAGPLWGGPDKSGGGSSGLGLWEDTPKSGGSLVRGLGLKNSRSSPSLSDSYSHLSGRPIRKKTEEEEKLLKLLQGIPRPQDGFTQWCEQMLHTLSATGSLDVPMAVAILKEVESPYDVHDYIRSCLGDTLEAKEFAKQFLERRAKQKASQQRQQQQEAWLSSASLQTAFQANHSTKLGPGEGSKAKRRALMLHSDPSILGYSLHGSSGEIESVDDY
B4: GRB10-interacting GYF protein 2 (Homo sapiens), Q6Y7W6 (parent)
chain: B2 partner
B5: Eukaryotic translation initiation factor 4E type 2 (Homo sapiens), O60573-1 (parent)
chain: B1 chain
partner: B3 chain

Variants of: B1
Conditions: with 4ebp1_human EIF4EBP1, Q13541
4ebp1_human EIF4EBP1, Q13541, sequence (Q13541 whole entry): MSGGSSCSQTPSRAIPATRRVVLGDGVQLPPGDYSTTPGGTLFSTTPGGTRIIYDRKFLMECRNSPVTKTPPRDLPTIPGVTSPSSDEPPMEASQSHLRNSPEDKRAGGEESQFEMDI

Variant | effect of a mutation on the interaction
I85A;M101A | disrupting interaction strength
W95A | disrupting interaction strength

Variants of: B1
Conditions: with 4ebp1_human EIF4EBP1, Q13541
Remark: another data set of the same source

Variant | effect of a mutation on the interaction
S99N | increasing interaction strength

Variants of: B2
Conditions: with GIGYF2, Q6Y7W6-1

Variant | effect of a mutation on the interaction
I85A;M101A | with no effect
W95A | with no effect

Variants of: B2
Conditions: with GIGYF2, Q6Y7W6-1
Remark: another data set of the same source

Variant | effect of a mutation on the interaction
I85A;M101A | decreasing interaction strength
W95A | decreasing interaction strength

Variants of: B2
Conditions: with ggyf2_human GIGYF2, Q6Y7W6

Variant | effect of a mutation on the interaction
I85A;M101A | decreasing interaction strength
W95A | disrupting interaction strength
R103L;E149L | disrupting interaction strength

Variants of: B2
Conditions: with GIGYF2, Q6Y7W6-1
Remark: another data set of the same source

Variant | effect of a mutation on the interaction
Q159S;M161D;R202E | with no effect

Variants of: B3
Conditions: with EIF4E2, O60573-1

Variant | effect of a mutation on the interaction
E44A;E45F;Q87A | with no effect

Variants of: B3
Conditions: with EIF4E2, O60573-1
Remark: another data set of the same source

Variant | effect of a mutation on the interaction
Y39A;Y41A;M46A;L47A | disrupting interaction strength

Variants of: B3
Conditions: with EIF4E2, O60573-1
Remark: another data set of the same source

Variant | effect of a mutation on the interaction
L60D;F65A;V68D | with no effect
L60D;F65D;V68D;E86A;N95F | disrupting interaction strength
L60D;F65D;V68D;P76D;L77A | disrupting interaction strength
E86A;N95F | with no effect

Variants of: B3
Conditions: with EIF4E2, O60573-1
Remark: another data set of the same source

Variant | effect of a mutation on the interaction
E44F;E45A;Q87A | with no effect

Variants of: B4
Conditions: with EIF4E2, O60573-1

Variant | effect of a mutation on the interaction
E46A;E47F;Q89A | with no effect

Variants of: B4
Conditions: with EIF4E2, O60573-1
Remark: another data set of the same source

Variant | effect of a mutation on the interaction
E46A;E47F;Q89A | with no effect

Variants of: B4
Conditions: with EIF4E2, O60573-1
Remark: another data set of the same source

Variant | effect of a mutation on the interaction
Y41A;Y43A;M48A;L49A | disrupting interaction strength

Variants of: B5
Conditions: with ggyf1_human GIGYF1, O75420

Variant | effect of a mutation on the interaction
I85A;M101A | decreasing interaction strength
I85A;W95A;M101A | disrupting interaction strength
W95A | disrupting interaction strength

Variants of: B5
Conditions: with ggyf1_human GIGYF1, O75420
Remark: another data set of the same source

Variant | effect of a mutation on the interaction
I85A;M101A | with no effect
W95A | with no effect

Variants of: B5
Conditions: with ggyf1_human GIGYF1, O75420
Remark: another data set of the same source

Variant | effect of a mutation on the interaction
Q159S;M161D;R202E | with no effect
